# Assay results as given in PMC7116892 (Science (New York, N.Y.), 2021).
# B1: Shulin (Q22YU3), recombinant full-length, C-terminal 2xStrep (natural protein, Tetrahymena thermophila, UniProt Q22YU3 1-1200, looked up)
# chain: MFNFFSSANINQNIPKYSVNDFVFRLKKIEKIVVKEGLDGFLLINGVDSRENTEYVKLTNWLFLGNSGLEIEENEYLNQIYSDMIVLIKKGTTHIFIDPEALNSLQTLIYSIPNVDVFCPTEKQYEDKDEMELLKMAFFLRVMKPTKKVGILLGQKDKGKINSIEKWPLIQSYGLEELGVGFFSMNHEVVDLTLRLNAVYKNYDKFFVSKLIYVVAKRLTGHFNSAAGQLGDMKMHKRNLATESQLTEIFRDTYEIEEISKWVQIRGVNAALPKPRVLFGKNTSADCSKEPSVAPLKDLKYSETFHSFHATFETFDLRTCLRAARTYFLAKGVKEERNLITLNDDEGVPQGYELNIDENQQYKDQDFLANLYLSIIIGFNEVMQLITKDYKNMTEEFIQDYIFQKVSKVYAGFQIPESEITLDKIQIILKAYNSFGEEVKIDFKDTISFKLTPYFFMVRIEQKNIKSQILNNTVLGSLVFAESFILQEGCYLLLTKEIPYFDLWNCQNDYSEKIEKMKKRILWEPLGKQISDELPKNRIFVQTGRKSNYGFDIPIMQASYYMHELGLRIETQRLGWFILFFKEMKEIQITQKMNHTWLIFKVDSNITFNSISKDTIALEFTGDALEQSFFKIKNYFEENQIKYEYQVDIPAIFQESQIAKKQILNQQSQGQKLITMNSIQNEQFFISYIESKQLMILNQMKDLKLSAYKNLYEQMQISQAITPVENHIGVILVNGSYCSGKRKFAENLIRFGSDNNLRLHLYKFDLNEMSELTEKSYLSGLLKFASEKKIQNTDVIVASVPHFINTKILIDYFSKSEKISNAFYIRTIATKININNIYSNFNKNPVNNVFTYGVEGYSQFLLLDTYNNYDADVNALNKTLSGVLPGAKIYKIMNNILNPALAKDILTSITFISEQNNLNRLKYSVQYDLLTSNGPSSVVFIPFKLPILREKIRDLIYKKILQNGNQTLVDTIEAEQKIAEFKELNKNSKDPLMIEIIKLKEKIEIQNAQTSDQAIKIDYVKGILRYDSKLKEGLEEITITPNYFIERTVKGVDAKEFTEELNGVSFKNVKYTGITNSIINDMGFVFAGKNLNKEKLLELLYKLVKPLNKQKLRQRKDLTEEEIVDIQFRNRGEGLENGEFYDGQFWRNIQGLILPHHPKKDEFIEEYLKQEEVRINQINEQLQQEWETWKQVYDKIHLDK
# B2: Q22MS1, recombinant, C-terminal 2xStrep (natural protein, Tetrahymena thermophila, UniProt Q22MS1 1-1892, looked up)
# chain: MFQSYLQDIEKENNSSIYNAQAQQNSSTQQSIWDDYIDRQLEHLVVEYQFDFDKIAQRLAGVIGDKQQQKVNFDTCRQRWKQLHLRRYEDKDKDRLDRVSKSVMKMEDPNNALKVQELVEKLPKARQNKDFLKISDEEKLQAFYLNDKGEKIQPTTFNVLKDSVMGIKDKTERERVFKKQQEEFFKSLEKLAGEQDEDMFTKPLIFRAKFTEPTNFNFIVEREELTREQAQRIMSQKVQIKGAGLVPPEPEMGIKMDNYVSMFARPDEEEEELKKKDQEKEVQVNQQIMQDQQETKEEQERDQEELKKQMELTEEEKKKQQEQEEEKKKINVDLYLAERGLKSIDEALNSLEKMRSKVKVNNYFEEAQTEDKKLKEQKEKNQQKVDNEDQIRQEIIKQGLEQLKQKEQGDQLVQFHENQIKKDIKELNEIIGDNKSKNVKNQTQQPNKAVEEEEEIILEKKNDQSKKVPTKKGIFSQFAEEEDSGSEDEVGNDEEELDDELYLQAQRIGLKSDAEIDLFITKKKEERKANMLNKKKVQFSEFSEQKQISEDTDELLAKQEKQIKQKQQFLEKLKKKSENEAGENDESNQEGSQNWRDLEFSAGMAFKRQLEEEKMQRMIKEQFEEEQRRKADQERIRQIQEEYHLKKLDIETKIKLREPLNLEKVNQEKWKEYIEAQQKRREEIEKEFEEKQRIQTEQEEKEQKENLIKEKIHFFEQKIKNFPSNDPFKCFFDDQVSYLSQISSLPSKITTKIADLKKYDISRDGITSRYQILIFPYLDKCQEFVFQFLSFFLRNSFFRQPPSEKELGEIVSENPLDEIPCQRLSSKGFPFCLVSFYIGSHTSEINDEQDEQYLSNYLNDAIKFDKLINDDKLQKSIYLFFDTYIGRGQDTLSKQLDLALTEFLSDGCLDQAIRKYGEKVINRDMKLSDFKTAYYKNMEIAKKLFNESNTFHSICPTKTSYHQTNQLAIHQNKKKQLLPTSPSNSPSIISHSHGNKWETSVIIIRNYSEIQNPSALRQQQNRGVDFSNASDLMQQDVTTEQYSNLSESLSNLVPSHTEISQRQKQQMTDVIHYTLNKLQEKGIQILGMKSFFFDQKTVQEFKSYVENINFNTNTNQPIVVISVAGFDLHSKLKKMVGSEDAQLAKRVEPNSLNALFSTGRDDSIIIPYNKALSRRLISYFFCGRLEKIQTVQDIQVIEGLTNKKQLYLTKPKPFNPVFLLNSQPIREHICLLSSKFLPQQFCEVIRKIQARGFELLNIRVIDSSNLSAILKKDEDFSAFIENENLQELNSGENDYERINLVLHIQGANISSLRNTLLNKIIDYNPFLHPSKREIFYYTKDDLSLTLLKDIFFNRHIKSNFTPSERFPLFIALWPFLNDYEEKEGLTASQAVPLGNDLKIMSSYGLELLSVSKIFKSQIQQKLNTSIEEETEHVDLKSILHQLIQNNIQINSITKKKPEFSTFCSRLGEEILSQDFYLAVFRYQGDRQSKHLDKLFTEVPFVHSNKTINESTVVTHGAKQTPHTQAKPLPTEFLTLFFLDSSAQQVSNFTKLLGIGAFDDWSFKGSFIFDLPSSGYTGEIETLIILSEDVVKTLLLVGLVKIIENNQFKIKSFFKHRCSREFSEVIQENLLQAFSGYESQMHDQGTKLQKIKASLDNLMTRLQGESMYFLVLSKENGIFNGKKILFELAEKYSVFKKETINVESSTEYMLDKGMYCSLNYKCQQREFKELQFMSQQILSMAHENNQEQQDVDKMYDNQLVMVIRIDQQIQLYEVFRKLQSDLKFKIIHFLVMRQFEWTDIQYISSHFTPKFEAQHIQKYFEINNDGIYCIVHLDSKNSVSLSDAFGTLRLNEKGEFKQVIRSSLFGKQEVFFIYTNNPQHVKKLSAYAFKSSE
# Tests used:
# [1] = target: T1, Dyh3 (α-HC), ODA heavy chain (Tetrahymena thermophila, UniProt Q22A67 1-4620); experiment: cryo-EM structure
# [2] = target: T2, Dyh5 (γ-HC), ODA heavy chain (Tetrahymena thermophila, UniProt I7M6H4 1-4168); experiment: cryo-EM structure
# [3] = target: T1, Dyh3 (α-HC), ODA heavy chain; experiment: cross-linking
# [4] = target: T2, Dyh5 (γ-HC), ODA heavy chain; experiment: cross-linking
Binder,binding result [1],binding result [2],binding result [3],binding result [4]
B1,binds,binds,–,–
B2,–,–,binds,binds
